This passage reports fold co-precipitated relative to NHK results from PMC3806662.

The target in the assay is BiP (human (endogenous in HEK293T)) (UniProt P11021). The experiment in a line: co-IP.
Sequence of UniProt P11021 (P11021 19-654): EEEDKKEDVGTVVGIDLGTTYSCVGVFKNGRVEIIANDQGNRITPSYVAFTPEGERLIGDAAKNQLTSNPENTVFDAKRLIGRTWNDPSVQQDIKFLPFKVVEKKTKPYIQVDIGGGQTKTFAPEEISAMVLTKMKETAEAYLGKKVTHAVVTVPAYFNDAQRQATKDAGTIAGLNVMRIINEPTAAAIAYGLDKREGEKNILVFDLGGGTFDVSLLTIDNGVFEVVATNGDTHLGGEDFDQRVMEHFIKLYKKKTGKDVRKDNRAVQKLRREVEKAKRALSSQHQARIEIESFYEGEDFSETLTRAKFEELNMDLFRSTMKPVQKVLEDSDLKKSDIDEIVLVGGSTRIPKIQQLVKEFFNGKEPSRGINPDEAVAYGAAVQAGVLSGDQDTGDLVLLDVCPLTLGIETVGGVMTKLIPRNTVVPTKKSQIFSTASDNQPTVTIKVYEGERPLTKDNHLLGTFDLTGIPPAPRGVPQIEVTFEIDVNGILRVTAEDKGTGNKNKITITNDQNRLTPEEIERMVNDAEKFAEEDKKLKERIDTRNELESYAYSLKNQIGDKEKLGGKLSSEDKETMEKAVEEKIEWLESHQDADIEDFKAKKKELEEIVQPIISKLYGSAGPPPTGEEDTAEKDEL

For the substance “QQQ mutant of NHK (from UniProt P01009 25-418) (natural protein)”, the fold co-precipitated relative to NHK was 2 fold.
